Target: ssph2_salty sspH2 (UniProt P0CE12)
Sequence (P0CE12 whole entry): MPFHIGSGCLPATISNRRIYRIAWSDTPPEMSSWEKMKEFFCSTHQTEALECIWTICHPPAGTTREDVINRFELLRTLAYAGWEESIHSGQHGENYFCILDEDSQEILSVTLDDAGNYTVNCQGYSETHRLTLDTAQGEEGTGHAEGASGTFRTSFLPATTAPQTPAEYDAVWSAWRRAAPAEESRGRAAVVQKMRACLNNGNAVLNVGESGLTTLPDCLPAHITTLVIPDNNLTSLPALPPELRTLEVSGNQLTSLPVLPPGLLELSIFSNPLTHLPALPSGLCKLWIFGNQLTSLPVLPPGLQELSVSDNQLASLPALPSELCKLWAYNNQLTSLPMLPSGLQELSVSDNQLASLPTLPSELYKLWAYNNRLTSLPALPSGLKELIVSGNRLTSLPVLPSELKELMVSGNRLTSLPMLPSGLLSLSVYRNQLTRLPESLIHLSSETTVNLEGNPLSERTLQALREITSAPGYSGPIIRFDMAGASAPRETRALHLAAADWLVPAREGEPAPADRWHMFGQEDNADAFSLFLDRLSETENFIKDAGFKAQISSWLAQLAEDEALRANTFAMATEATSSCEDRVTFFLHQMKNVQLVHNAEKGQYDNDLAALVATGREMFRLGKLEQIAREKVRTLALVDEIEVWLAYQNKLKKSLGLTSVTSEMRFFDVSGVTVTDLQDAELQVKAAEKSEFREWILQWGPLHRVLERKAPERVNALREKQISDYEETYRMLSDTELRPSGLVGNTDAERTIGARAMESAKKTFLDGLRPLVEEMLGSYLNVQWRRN

Ubiquitin-conjugating enzyme E2 D3 (Homo sapiens), P61077 A96D, sequence (P61077 whole entry A96D): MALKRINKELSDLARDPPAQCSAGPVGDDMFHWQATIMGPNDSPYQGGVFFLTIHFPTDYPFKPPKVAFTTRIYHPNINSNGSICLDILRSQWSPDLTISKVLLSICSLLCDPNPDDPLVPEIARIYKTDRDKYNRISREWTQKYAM

## Ubiquitin-conjugating enzyme E2 D3 (Homo sapiens), P61077 A96D
  effect of a mutation on the interaction: decreasing interaction
